± gives the uncertainty stated by the source.
Assay: self-splicing fitness, log relative to wild type (ln ratio); higher = more splicing; Tetrahymena group I intron in knt gene, E. coli kanamycin selection, DiMSum; sequences stand for … in CUCUCU…GGAGGGAAAAGUUAUCAGGCAUGCACCUGGUAGCUAGUCUUUAAACCAAUAGAUUGCAUCGGUUUAAAAGGCAAGACCGUCAAAUUGCGGGAAAGGGGUCAACAGCCGUUCAGUACCAAGUCUCAGGGGAAACUUUGAGAUGGCCUUGCAAAGGGUAUGGUAAUAAGCUGACGGACAUGGUCCUAACCACGCAGCCAAGUCCUAAGUCAACAGAUCUUCUGUUGAUAUGGAUGCAGUUCACAGACUAAAUGUCGGUCGGGGAAGAUGUAUUCUUCUCAUAAGAUAUAGUCGGACCUCUCCUUAAUGGGAGCUAGCGGAUGAAGUGAUGCAACACUGGAGCCGCUGGGAACUAAUUUGUAUGCGAAAGUAUAUUGAUUAGUUUUGGAGUACUCGUGGUCG
In short: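 Colonies from six replicate transformations of E. coli BL21(DE3) were pooled and amplicon-sequenced on an Illumina HiSeq 2500. The library placed an intron with all eight P1ex-region nucleotides randomised inside the knt kanamycin-resistance gene on pET-22b(+), and cells grew overnight at 37°C or 30°C on LB agar with or without 25 μg/mL kanamycin (plus 100 μg/mL carbenicillin, 50 μM IPTG, 0.2% rhamnose). Fitness is the DiMSum error-weighted combination of wild-type-normalised replicate fold changes, kanamycin versus none.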

| Sequence | self-splicing fitness (ln) (30 °C) | self-splicing fitness (ln) (37 °C) |
| --- | --- | --- |
| GAAGAGCAAUAUUACGGCAC | -1.31 ± 0.12 | -0.934 ± 0.16 |
| GAAGAGCAAUAUUACGUAAG | -3.39 ± 0.21 | -1.5 ± 0.16 |
| GAAGAGCAAUAUUACGUACA | -3.17 ± 0.2 | -2.7 ± 0.18 |
| GAAGAGCAAUAUUACGUAGG | -3.14 ± 0.33 | -1.99 ± 0.19 |
| GAAGAGCAAUAUUACGUCUA | -1.86 ± 0.13 | -1.01 ± 0.13 |
| GAAGAGCAAUAUUACGUGAG | -2.97 ± 0.19 | -1.11 ± 0.22 |
| GAAGAGCAAUAUUACGUUUC | -2.8 ± 0.14 | -2.74 ± 0.22 |
| GAAUAGCAAUAUUACGAGAU | -3.86 ± 0.23 | -1.22 ± 0.14 |
| GAAUAGCAAUAUUACGAGCC | -1.48 ± 0.17 | 0.00455 ± 0.17 |
| GAAUAGCAAUAUUACGAGCU | -1.21 ± 0.081 | -0.335 ± 0.1 |
| GAAUAGCAAUAUUACGAUCU | 0.384 ± 0.078 | -0.286 ± 0.079 |
| GAAUAGCAAUAUUACGCAAC | -2.63 ± 0.21 | -1.77 ± 0.3 |
| GAAUAGCAAUAUUACGCCAA | -2.44 ± 0.23 | -1.39 ± 0.16 |
| GAAUAGCAAUAUUACGGAAC | -2.37 ± 0.16 | -0.0927 ± 0.15 |
| GAAUAGCAAUAUUACGGAAU | -2.69 ± 0.17 | -1.66 ± 0.2 |
| GAAUAGCAAUAUUACGGAUC | -0.118 ± 0.058 | -0.207 ± 0.073 |
| GAAUAGCAAUAUUACGGCAA | -0.403 ± 0.14 | -0.118 ± 0.14 |
| GAAUAGCAAUAUUACGGCAU | -0.386 ± 0.065 | -0.0278 ± 0.083 |
| GAAUAGCAAUAUUACGGUCA | -0.00851 ± 0.072 | -0.154 ± 0.077 |
| GAAUAGCAAUAUUACGGUGU | -3 ± 0.13 | -1.58 ± 0.14 |
| GAAUAGCAAUAUUACGUAGC | -3.4 ± 0.17 | -1.1 ± 0.12 |
| GAAUAGCAAUAUUACGUCAA | -2.1 ± 0.14 | -1.95 ± 0.13 |
| GAAUAGCAAUAUUACGUCAG | -3.69 ± 0.31 | -3.11 ± 0.4 |
| GAAUAGCAAUAUUACGUCUU | -0.449 ± 0.059 | 0.342 ± 0.074 |
| GAAUAGCAAUAUUACGUGUA | -1.82 ± 0.12 | -1.49 ± 0.13 |

| Sequence | self-splicing fitness (ln) (30 °C) | self-splicing fitness (ln) (37 °C) |
| --- | --- | --- |
| GACAAGCAAUAUUACGAAGU | -4.61 ± 0.27 | -2.18 ± 0.14 |
| GACAAGCAAUAUUACGACAA | -0.668 ± 0.11 | -0.951 ± 0.1 |
| GACAAGCAAUAUUACGACCG | -0.672 ± 0.21 | -0.326 ± 0.34 |
| GACAAGCAAUAUUACGACUU | -0.00142 ± 0.071 | 0.381 ± 0.088 |
| GACAAGCAAUAUUACGAUCA | 0.0763 ± 0.12 | -0.0166 ± 0.15 |
| GACAAGCAAUAUUACGCACA | -0.149 ± 0.086 | -0.296 ± 0.11 |
| GACAAGCAAUAUUACGCAGA | -3.04 ± 0.18 | -1.83 ± 0.14 |
| GACAAGCAAUAUUACGCAGG | -3 ± 0.13 | -1.71 ± 0.13 |
| GACAAGCAAUAUUACGCGAC | -1.52 ± 0.15 | -1.63 ± 0.19 |
| GACAAGCAAUAUUACGCGCC | -2.58 ± 0.18 | -1.08 ± 0.21 |
| GACAAGCAAUAUUACGCUAC | -3.62 ± 0.31 | -2.54 ± 0.23 |
| GACAAGCAAUAUUACGGAAA | -2.13 ± 0.2 | -2 ± 0.23 |
| GACAAGCAAUAUUACGGACC | -1.32 ± 0.1 | -0.785 ± 0.11 |
| GACAAGCAAUAUUACGGAUG | -2.92 ± 0.11 | -1.75 ± 0.12 |
| GACAAGCAAUAUUACGGAUU | -2.16 ± 0.076 | -0.656 ± 0.076 |
| GACAAGCAAUAUUACGGCGG | -3.27 ± 0.29 | -1.87 ± 0.18 |
| GACAAGCAAUAUUACGGUAC | -2.81 ± 0.13 | -2.64 ± 0.16 |
| GACAAGCAAUAUUACGGUAG | -1.84 ± 0.098 | -0.222 ± 0.092 |
| GACAAGCAAUAUUACGGUGC | -2.77 ± 0.21 | -1.63 ± 0.24 |
| GACAAGCAAUAUUACGUCAC | -2.9 ± 0.23 | -2.75 ± 0.29 |
| GACAAGCAAUAUUACGUCCA | -2.8 ± 0.14 | -1.42 ± 0.13 |
| GACAAGCAAUAUUACGUCCG | -1.98 ± 0.27 | -2.47 ± 0.28 |
| GACAAGCAAUAUUACGUCGU | -3.44 ± 0.14 | -2.24 ± 0.11 |
| GACAAGCAAUAUUACGUGGU | -3.63 ± 0.11 | -2.76 ± 0.12 |
| GACAAGCAAUAUUACGUUUG | -2.88 ± 0.094 | -2.64 ± 0.13 |

| Sequence | self-splicing fitness (ln) (30 °C) | self-splicing fitness (ln) (37 °C) |
| --- | --- | --- |
| GACCAGCAAUAUUACGAAAA | -2.05 ± 0.12 | -0.391 ± 0.11 |
| GACCAGCAAUAUUACGAAAC | -1.43 ± 0.099 | 0.296 ± 0.11 |
| GACCAGCAAUAUUACGAACA | -0.472 ± 0.091 | 0.313 ± 0.081 |
| GACCAGCAAUAUUACGAAUA | -1.74 ± 0.11 | -0.549 ± 0.11 |
| GACCAGCAAUAUUACGACCC | -0.132 ± 0.14 | 0.75 ± 0.18 |
| GACCAGCAAUAUUACGACGU | -0.417 ± 0.064 | 0.321 ± 0.078 |
| GACCAGCAAUAUUACGAGCA | -1.07 ± 0.084 | -0.284 ± 0.096 |
| GACCAGCAAUAUUACGAGCG | -2.08 ± 0.067 | -0.434 ± 0.077 |
| GACCAGCAAUAUUACGAGGU | -2.95 ± 0.12 | -3.04 ± 0.2 |
| GACCAGCAAUAUUACGAGUU | -3.35 ± 0.1 | -1.5 ± 0.096 |
| GACCAGCAAUAUUACGCACG | -0.677 ± 0.067 | -0.895 ± 0.095 |
| GACCAGCAAUAUUACGCCGC | -3.75 ± 0.32 |  |
| GACCAGCAAUAUUACGGAGU | -0.646 ± 0.077 | 0.000468 ± 0.092 |
| GACCAGCAAUAUUACGGCCU | -2.51 ± 0.13 | -0.969 ± 0.11 |
| GACCAGCAAUAUUACGGGAG | -0.677 ± 0.053 | -0.0889 ± 0.065 |
| GACCAGCAAUAUUACGUACU | -0.709 ± 0.069 | 0.123 ± 0.082 |
| GACCAGCAAUAUUACGUAGA | 0.284 ± 0.056 | 0.219 ± 0.074 |
| GACCAGCAAUAUUACGUCCA | -1.75 ± 0.095 | -0.749 ± 0.095 |
| GACCAGCAAUAUUACGUCUC | -0.562 ± 0.044 | -0.159 ± 0.064 |
| GACCAGCAAUAUUACGUGCG | -0.787 ± 0.082 | -0.644 ± 0.097 |
| GACCAGCAAUAUUACGUUAA | -1.13 ± 0.093 | -0.35 ± 0.1 |
| GACGAGCAAUAUUACGAAUG | -3.03 ± 0.2 | -2.31 ± 0.22 |
| GACGAGCAAUAUUACGACAU | -2.931 ± 0.021 | -1.99 ± 0.036 |
| GACGAGCAAUAUUACGAGAC | -3.99 ± 0.28 | -1.95 ± 0.28 |
| GACGAGCAAUAUUACGAGCU | -3.27 ± 0.31 |  |

From the supplement of paper PMC7877785
